Results taken from article PMC2148115.

Molecular target: Tubulin (αβ-tubulin heterodimer) from pig brain (pig) (UniProt P02550)
Test: AUC

percent of the protein in the 19.5 S species, molar ratio to tubulin 0.43:1: 21% | percent of the protein in the 28.5 S species, molar ratio to tubulin 0.43:1: 26%
Substance: MAP2C (from UniProt P15146-3 1-467) (natural protein)
